Measured values from patent US20250002564A1 (HOSPITAL FOR SICK CHILDREN, published 2025).
Numbering of substitutions follows the chain as printed. “And” between values parts separate entries of the source, which are not always exact repeats. Equal values may be shown once.

B1: mAb 128 (antibody, V domains shown)
VH: QVQLVQSGAEVKKPGASVKVSCKASGYTFTHYYMHWVRQAPGQGLEWMGIINPSSSSASYSQKFQGRVTMTRDTSTSTVYMELSSLRSEDTAVYYCARDGRYGSGSYPFDYWGQGTLVTVSS
VL: DIQMTQSPSSLSASVGDRVTITCRASQNISRYLNWYQQKPGKAPKLLIYDASNLETGVPSRFSGSGSGTDFTLTISSLQPEDFATYYCQQANGFPPTFGQGTKLEIKR
B2: mAb 64 (antibody, V domains shown)
VH: EVQLLESGGGLVQPGGSLRLSCAASGFPFSQHGMHWVRQAPGKGLEWVSAIDRSGSYIYYADSVKGRFTISRDNSKNTLYLQMNSLRAEDTAVYYCARDTYGGKVTYFDYWGQGTLVTVSS
VL: B1 VL with N28G, R31S, Y32H, N34A, A91T, N92Y, G93S, F94T, P96W, L104V
notes: also called IgG 64; Antibody 64
B3: mAb 158 (antibody, V domains shown)
VH: QVQLVQSGAEVKKPGASVKVSCKASGYTFTGYYMHWVRQAPGQGLEWMGWINPLNGGTNFAPKFQGRVTMTRDTSTSTVYMELSSLRSEDTAVYYCARDPGGSYSNDAFDIWGQGTLVTVSS
VL: B1 VL with N28S, T56S, G93S, P96L, Q100G, L104V, E105D
notes: also called IgG 158; Antibody 158
B4: mAb 56 (antibody, V domains shown)
VH: QVQLVQSGAEVKKPGASVKVSCKASGYTFTSYGISWVRQAPGQGLEWMGWISAYNGNTNYAQKLQGRVTMTRDTSTSTVYMELSSLRSEDTAVYYCARDIGPIDYWGQGTLVTVSS
VL: B1 VL with N28G, R31S, N34A, E55Q, T56S, G93S, P96S, L104V
notes: also called IgG 56; Antibody 56
B5: mAb 82 (antibody, V domains shown)
VH: QVQLVQSGAEVKKPGASVKVSCKASGGSFSTSAFYWVRQAPGQGLEWMGWINPYTGGTNYAQKFQGRVTMTRDTSTSTVYMELSSLRSEDTAVYYCARSRALYGSGSYFDYWGQGTLVTVSS
VL: B1 VL with N28V, R31N, N34A, A91S, N92F, G93S, F94P, K103R
notes: also called IgG 82; Antibody 82
B6: mAb 254 (antibody, V domains shown)
VH: EVQLLESGGGLVQPGGSLRLSCAASGFTFSSSAMHWVRQAPGKGLEWVSAIGTGGDTYYADSVKGRFTISRDNSKNTLYLQMNSLRAEDTAVYYCAREGDGYNFYFDYWGQGTLVTVSS
VL: DIQMTQSPSSLSASVGDRVTITCRASQGISSYLAWYQQKPGKAPKLLIYDASSLQIGVPSRFSGSGSGTDFTLTISSLQPEDFATYYCLQSYSTPPWTFGQGTKVEIKR
notes: also called IgG 254; Antibody 254
B7: mAb 349 (antibody, V domains shown)
VH: EVQLLESGGGLVQPGGSLRLSCAASGFTFSNYGMHWVRQAPGKGLEWVSGISSAGSITNYADSVKGRFTISRDNSKNTLYLQMNSLRAEDTAVYYCAGNHAGTTVTSEYFQHWGQGTLVTVSS
VL: DIQMTQSPSSLSASVGDRVTITCRASQSISSWLAWYQQKPGKAPKLLIYDTSNLETGVPSRFSGSGSGTDFTLTISSLQPEDFATYYCQQSYTTPWTFGQGTRLEIKR
notes: also called IgG 349; Antibody 349
B8: mAb 160 (antibody, V domains shown)
VH: QVQLVQSGAEVKKPGASVKVSCKASGYTFTGHDMHWVRQAPGQGLEWMGIINPSGGSTSYAQKFQGRVTMTRDTSTSTVYMELSSLRSEDTAVYYCARANSLRYYYGMDVWGQGTMVTVSS
VL: B7 VL with I29V, D50A, T51A, N53S, E55Q, T56S, S91G, W96Y, R103K
notes: also called IgG 160; Antibody 160
B9: mAb 108 (antibody, V domains shown)
VH: QVQLVQSGAEVKKPGASVKVSCKASGYIFSRYAIHWVRQAPGQGLEWMGWMNPISGNTDYAPNFQGRVTMTRDTSTSTVYMELSSLRSEDTAVYYCAKDGSQLAYLVEYFQHWGQGTLVTVSS
VL: B7 VL with S28V, S30T, S31N, W32N, T51A, N53T, T94F, W96Y, R103K, L104V
B10: mAb 46 (antibody, V domains shown)
VH: EVQLLESGGGLVQPGRSLRLSCAASGFTFSSYAMSWVRQAPGKGLEWVSTIYSGGSTYYADSVKGRFTISRDNSKNTLYLQMNSLRAEDTAVYYCARGDSRDAFDIWGQGTMVTVSS
VL: B7 VL with T51A, T93S, W96F, Q100P, R103K, L104V, E105D
notes: also called IgG 46; Antibody 46
B11: mAb 192 (antibody, V domains shown)
VH: QVQLVQSGAEVKKPGSSVKVSCKASGGTFSSYAISWVRQAPGQGLEWMGWINPNSGGANYAQKFQGRVTITADESTSTAYMELSSLRSEDTAVYYCSTYYYDSSGYSTDYWGQGTLVTVSS
VL: DIVMTQSPLSLPVTPGEPASISCRSSQSLLHSNGYNYLDWYLQKPGQSPQLLIYAASSLQSGVPDRFSGSGSGTDFTLKISRVEAEDVGVYYCMQALQTPYTFGQGTKLEIKR
B12: mAb 180 (antibody, V domains shown)
VH: QVQLVQSGAEVKKPGSSVKVSCKASGYTFTSYAMHWVRQAPGQGLEWMGRISPRSGGTKYAQRFQGRVTITADESTSTAYMELSSLRSEDTAVYYCAREAVAGTHPQAGDFDLWGRGTLVTVSS
VL: B11 VL with M94Q, A96Y, L97Y, Q98S, T99S
B13: mAb 120 (antibody, V domains shown)
VH: QVQLVQSGAEVKKPGASVKVSCKASGYTFTSYDINWVRQAPGQGLEWMGMIDPSGGSTSYAQKFQGRVTMTRDTSTSTVYMELSSLRSEDTAVYYCAKDFGGGTRYDYWYFDLWGRGTLVTVSS
VL: EIVMTQSPATLSVSPGERATLSCRASQSVSSRYLAWYQQKPGQAPRLLIYGASTRATGIPARFSGSGSGTEFTLTISSLQSEDFAVYYCQQYYTTPRTFGQGTRLEIKR
notes: also called IgG 120; Antibody 120
B14: mAb 178 (antibody, V domains shown)
VH: QVQLVQSGAEVKKPGASVKVSCKASGYTFTDYHMHWVRQAPGQGLEWMGWINPNSGGTNYAQKFQGRVTMTRDTSTSTVYMELSSLRSEDTAVYYCARDISSWYEITKFDPWGQGTLVTVSS
VL: EIVMTQSPATLSVSPGERATLSCKASQSVSGTYLAWYQQKPGQAPRLLIYGASTRATGIPARFSGSGSGTEFTLTISSLQSEDFAVYYCLQTHSYPPTFGQGTKVEIKR
notes: also called IgG 178; Antibody 178
B15: mAb 368 (antibody, V domains shown)
VH: QVQLVQSGAEVKKPGSSVKVSCKASGYTFTSYDINWVRQAPGQGLEWMGAIMPMFGTANYAQKFQGRVTITADESTSTAYMELSSLRSEDTAVYYCARGSSGYYYGWGQGTLVTVSS
VL: not shown

These binders were tested against T1, SARS-CoV-2 Spike on wild-type pseudotyped virus (PsV) (SARS-CoV-2, UniProt P0DTC2 14-1273) (assay: cell-based or functional assay).

Binder | Median IC50
B1 | > 50 µg/mL and > 333 nM
B2 | > 50 µg/mL and > 333 nM
B3 | > 50 µg/mL and > 333 nM
B4 | > 50 µg/mL and > 333 nM
B5 | 1.6 µg/mL and 11 nM
B6 | > 50 µg/mL and > 333 nM
B7 | > 50 µg/mL and > 333 nM
B8 | > 50 µg/mL and > 333 nM
B9 | > 50 µg/mL and > 333 nM
B10 | 2.1 µg/mL and 14 nM
B11 | > 50 µg/mL and > 333 nM
B12 | > 50 µg/mL and > 333 nM
B13 | > 50 µg/mL and > 333 nM
B14 | > 50 µg/mL and > 333 nM
B15 | > 50 µg/mL and > 333 nM

Biological target: T1, SARS-CoV-2 Spike on wild-type …
Experiment: cell-based or functional assay
Remark: another data set of the same source

Binder | IC50 SARS-CoV2 PsV (IgG)
B1 | > 50 µg/mL
B2 | > 50 µg/mL
B3 | > 50 µg/mL
B4 | > 50 µg/mL
B5 | 1.6 µg/mL
B6 | > 50 µg/mL
B7 | > 50 µg/mL
B8 | > 50 µg/mL
B9 | > 50 µg/mL
B10 | 2.1 µg/mL
B11 | > 50 µg/mL
B12 | > 50 µg/mL
B13 | > 50 µg/mL
B14 | > 50 µg/mL
B15 | > 50 µg/mL

The binders below were run against Spike of authentic SARS-CoV-2/SB2-P4-PB virus (SARS-CoV-2, UniProt P0DTC2 14-1273) (assay: cell-based or functional assay).

Binder | IC50 SARS-CoV2/SB2-P4-PB (IgG)
B10 | 19 µg/mL
